Test system: Nlrc5 and Nlrc5 target genes
Test: Expression of antigen presentation genes / surface MHCI in B16 cells
Format: cell-based, mouse
Details: B16 cells stimulated 24 hr (FIGS. 13E-G)

B1: interferon-gamma: interferon gamma (R&D Systems) used to stimulate cells (protein, UniProt P01579 24-161, looked up)
Interferon gamma: QDPYVKEAENLKKYFNAGHSDVADNGTLFLGILKNWKEESDRKIMQSQIVSFYFKLFKNFKDDQSIQKSVETIKEDMNVKFFNSNKKKRDDFEKLTNYSVTDLNVQRKAIHELIQVMAELSPAAKTGKRKRSQMLFRG
expression of PSMB9 and surface expression of MHCI (H-2Kb): increased
